Experimental data published in article PMC3177862, “Characterization of the Biosynthesis, Processing and Kinetic Mechanism of Action of the Enzyme Deficient in Mucopolysaccharidosis IIIC” (PLoS ONE, 2011).

What was measured:
[1] = substrate: CC(=O)SCCNC(=O)CCNC(=O)[C@H](O)C(C)(C)COP(=O)(O)OP(=O)(O)OC[C@H]1O[C@@H](n2cnc3c(N)ncnc32)[C@H](O)[C@@H]1OP(=O)(O)O; assay: coupled fluorescence assay with beta-hexosaminidase (4-methylumbelliferone release), Michaelis-Menten fit; type: biochemical, Homo sapiens; conditions: MU-GlcNH2 fixed at 1 mM, CP buffer pH 5.5, 37 °C, liposomes with 20% PI, random sequential ternary-complex mechanism
From the text: (§1) coupled fluorescence assay with beta-hexosaminidase (4-methylumbelliferone release), Michaelis-Menten fit on N-acetyltransferase-His8Flag (heparin acetyl-CoA:alpha-glucosaminide N-acetyltransferase)

[2] = substrate: Cc1cc(=O)oc2cc(O[C@@H]3O[C@H](CO)[C@@H](O)[C@H](O)[C@H]3N)ccc12; assay: as above; type: biochemical, Homo sapiens; conditions: acetyl-CoA fixed at 2 mM, CP buffer pH 5.5, 37 °C, liposomes with 20% PI, random sequential ternary-complex mechanism
From the text: as §1

B1: N-acetyltransferase-His8Flag (heparin acetyl-CoA:alpha-glucosaminide N-acetyltransferase) (Homo sapiens) (protein)
chain: RDAQAAPPRDLDKKRHAELKMDQALLLIHNELLWTNLTVYWKSECCYHCLFQVLVNVPQSPKAGKPSAAAASVSTQHGSILQLNDTLEEKEVCRLEYRFGEFGNYSLLVKNIHNGVSEIACDLAVNEDPVDSNLPVSIAFLIGLAVIIVISFLRLLLSLDDFNNWISKAISSRETDRLINSELGSPSRTDPLDGDVQPATWRLSALPPRLRSVDTFRGIALILMVFVNYGGGKYWYFKHASWNGLTVADLVFPWFVFIMGSSIFLSMTSILQRGCSKFRLLGKIAWRSFLLICIGIIIVNPNYCLGPLSWDKVRIPGVLQRLGVTYFVVAVLELLFAKPVPEHCASERSCLSLRDITSSWPQWLLILVLEGLWLGLTFLLPVPGCPTGYLGPGGIGDFGKYPNCTGGAAGYIDRLLLGDDHLYQHPSSAVLYHTEVAYDPEGILGTINSIVMAFLGVQAGKILLYYKARTKDILIRFTAWCCILGLISVALTKVSENEGFIPVNKNLWSLSYVTTLSSFAFFILLVLYPVVDVKGLWTGTPFFYPGMNSILVYVGHEVFENYFPFQWKLKDNQSHKEHLTQNIVATALWVLIAYILYRKKIFWKI
notes: full length 635 aa with C-terminal His8-Flag tag kept; stably expressed in HeLa cells, DDM extract, anti-Flag purified; signal peptide cleaved; mix of 62 kDa precursor and processed alpha (Lys43-Asn144, N-terminus KKRHAE) and beta (Gly145-Ile635, N-terminus GVSEIA) chains; native about 80 kDa, monomer
- Km [1]: 500 ± 20 µM
- Vmax [1]: 6.33 µmol/min/mg
- kcat [1]: 7.33 ± 0.1 s⁻¹
- Km [2]: 450 ± 90 µM
- Vmax [2]: 9 µmol/min/mg
- kcat [2]: 10.4 ± 1.14 s⁻¹
